EC50 data for 1 molecule are collected here from patent publication US20220340655A1 (OPSIDIO, published 2022).

The assay has as its target human stem cell factor isoform SCF248 (human, UniProt P21583 26-273). As to the kind of experiment: flow cytometry on S1/S14 hSCF248 cells; printed as BC50 (50% maximal binding).

Sequence of human stem cell factor isoform SCF248 (P21583 26-189): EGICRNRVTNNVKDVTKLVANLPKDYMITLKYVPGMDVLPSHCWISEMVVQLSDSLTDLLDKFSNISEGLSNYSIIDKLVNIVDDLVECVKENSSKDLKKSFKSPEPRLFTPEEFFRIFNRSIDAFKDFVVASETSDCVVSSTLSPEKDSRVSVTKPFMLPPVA

B1: 5H10 VH3/VK3 (antibody, human IgG4, V domains shown)
VH: QVQLVQSGAEVKKPGSSVKVSCKSSGYAFSSYWMNWVRQRPGQGLEWIGQIYPGDGDTHYNGKFKGKATLTADKSTSTAYMELSSLRSEDTAVYFCSSSNWVGSYWGQGTLVTVSS
VL: DVVMTQSPLSLPVTLGQPASISCKSSQSLLESDGKTYLNWLQQRPGQSPRRLIYLVSRLDSGVPDRFSGSGSGTDFTLKISRVEAEDVGVYYCWQGTHLPQTFGGGTKVEIK
notes: Humanized; only variable regions are tied to the name
One may read the EC50 as the concentration giving half of the maximal effect. Lower therefore signals higher potency in that assay. Consider B1, for which it took 0.9 µg/mL to reach a half-maximal effect (EC50).
